Test results taken from patent US7229777B2, “Hairpin peptides with a novel structural motif and methods relating thereto” (Genentech, Inc., priority 2001, dated 2007).
Where two headings read alike, the source gives them in different places. Square brackets hold non-standard residues; d marks the D form. Ends that are not written are not given here.

Assays:
[1] = CD-monitored thermal denaturation (two-state unfolding fit); format: physicochemical; details: for ΔCp / Tm / ΔHm: 20 μM peptide in 20 mM potassium phosphate; for ΔCp / Tm / ΔSm / ΔHm: pH 7.0; for Tm: CD at 229 nm; for ΔSm: calculated from the fit parameters (ΔHm/Tm), 20 μM peptide, 20 mM potassium phosphate; for ΔHm: ΔH at Tm
Method: Spectra were acquired with an Aviv Instruments, Inc. Model 202 spectrophotometer. Peptide concentrations were determined spectrophotometrically as described in Gill & von Hippel (1989) Anal. Biochem. 182:319–326. Melting curves were acquired at 229 nm with […] equilibration at each temperature and an averaging time of 15 s. Thermal denaturation was reversible, as judged by recovery of CD signal (≧95%) upon cooling. In addition, reverse melting curves were acquired for trpzips 1 and 4. Reverse and forward curves were identical in shape, with≦0.5 K shift in Tm. As a model for the unfolded state of the peptides, the melting curve (linear) of an equimolar mixture of the trpzip1 half peptides SWTWEG[SEQ ID NO: 14] and NKWTWK [SEQ ID NO: 15] was measured. Data for the trpzip peptides were then fit to a two-state unfolding equilibrium as described in Minor & Kim (1994) Nature 367:660–663, fixing the unfolded baseline. Folded baselines, Tm, ΔHm (ΔH at Tm), and ΔCp were allowed to vary. For trpzips 5 and 6, the unfolded baseline could be fit directly to the experimental data. ΔSm was calculated from the fit parameters (ΔHm/Tm). Errors in Table 2 were generated by the fitting algorithm (Kaleidagraph, Synergy Software) and were given to indicate the quality of the fits to the particular experimental data set. However, when fitting different data sets, ΔHm and ΔCp values varied by ˜10%, as is typical in thermal denaturation experiments. Becktel & Scheilman (1987) Biopolymers 26:1859–1877.
Fitting the trpzip denaturation curves in this manner required large shifts in Tm (˜5–10 K higher than the minimum in a derivative plot) and generated fits of lower quality. […] From our data on trpzips 4, 5 and 6, we can estimate ΔCp ˜200 cal mol^−1 K^−1 for the gb1 peptide, which is sufficient to explain the discrepancy between our population estimate for the gb1 hairpin and those previously reported (Munoz et al. (1997), supra; Honda et al. (2000), supra). Recently, a non-zero ΔCp (˜100 cal mol^−1 K^−1) was reported for the unfolding of a 12-residue hairpin related to gb1. Espinosa & Gellman (2000) Angew. Chem. Int. Ed. 39:2330–2333.

[2] = Analytical (equilibrium) ultracentrifugation; format: physicochemical; details: for σobs/σcalc (reduced apparent molecular weight, observed/calculated): non-ideal single-species model, 20 mM potassium phosphate, 150 mM KCl, pH 7.1, 277 K
Method: Samples (in 20 mM potassium phosphate, 150 mM KCl, pH 7.1; 277 K) were analyzed in a Beckman XL-A ultracentrifuge at rotor speeds of 40 and 55 krpm. Peptide concentration was monitored by absorbance at or near 290 nm. Data for both speeds and two initial peptide concentrations (60 and 200 μM, […] data sets total per peptide) were fit simultaneously to a nonideal single species model using the program NONLIN. Johnson et al. (1981) Biophys. J. 36: 575–588.
Allowing nonideality improved the fit for the 200 μM samples while only slightly changing the reduced apparent molecular weight σ (˜+6%). For all 3 peptides, data from 60 μM samples fit an ideal model (FIG. 2) with random residuals. Expected σ values were determined from partial specific volumes based on residue composition, calculated buffer density, and monomer formula weights.

[3] = literature estimates, in water, gb1 at 278 K by NMR, cited from earlier work

Substance	ΔCp [1]	Tm [1]	unfolding free energy ([1]; 298 K)	ΔSm [1]	ΔHm [1]	Melting temperature higher than that of wt gb1 peptide ([1]; depending on the method used to estimate the folded population of gb1)	σobs/σcalc (reduced apparent molecular weight, observed/calculated) [2]	Tm ([1]; listed as Trpzip1)	Dependence of thermal denaturation on peptide concentration ([1]; trpzip1 20–150 μM, trpzip4 100 μM vs. 20 μM)	ΔCp, estimated from data on trpzips 4, 5 and 6 [1]	ΔGunf, estimated assuming additive stabilization from the two pairs ([1]; 298 K, estimated from trpzips 4, 5 and 6)	Hairpin population [3]	Hairpin population ([3]; listed as GB1 hairpin)	Peptide concentration up to which monomeric [2]
GEWTYDDATKTFTWTE (GEWTYDDATKTFTWTE-NH2) [trpzip5]	325 ± 10 cal mol^−1 K^−1	42.7 ± 0.2 °C	0.57 kcal/mol	42.2 cal mol^−1 K^−1	13.32 ± 0.14 kcal/mol									
GEWHWDDATKTWVWTE (GEWHWDDATKTWVWTE-NH2) [trpzip7]	418 ± 4 cal mol^−1 K^−1	80.2 ± 0.1 °C		70.8 cal mol^−1 K^−1	25.03 ± 0.1 kcal/mol									
GEWTWDDATKTWTVTE (GEWTWDDATKTWTVTE-NH2) [trpzip6]	236 ± 17 cal mol^−1 K^−1	44.6 ± 0.48 °C	0.49 kcal/mol	32.4 cal mol^−1 K^−1	10.29 ± 0.3 kcal/mol									
GEWTWDDATKTWTWTE (GEWTWDDATKTWTWTE-NH2) [trpzip4]	380 ± 4 cal mol^−1 K^−1	70.0 ± 0.1 °C	1.69 kcal/mol	63.7 cal mol^−1 K^−1	21.86 ± 0.06 kcal/mol	at least 40 K								
SWTWEpNKWTWK (SWTWE[dP]NKWTWK-NH2; N-terminus assumed; SMILES C[C@@H](O)[C@H](NC(=O)[C@H](Cc1c[nH]c2ccccc12)NC(=O)[C@H](CCCCN)NC(=O)[C@H](CC(N)=O)NC(=O)[C@H]1CCCN1C(=O)[C@H](CCC(=O)O)NC(=O)[C@H](Cc1c[nH]c2ccccc12)NC(=O)[C@@H](NC(=O)[C@H](Cc1c[nH]c2ccccc12)NC(=O)[C@@H](N)CO)[C@@H](C)O)C(=O)N[C@@H](Cc1c[nH]c2ccccc12)C(=O)N[C@@H](CCCCN)C(N)=O) [trpzip3]	195 ± 2 cal mol^−1 K^−1	78.7 ± 0.2 °C		37.0 cal mol^−1 K^−1	13.02 ± 0.07 kcal/mol		1.00 ± 0.04							
SWTWEGNKWTWK (SWTWEGNKWTWK-NH2) [trpzip1]	231 ± 4 cal mol^−1 K^−1	49.9 ± 0.3 °C		33.4 cal mol^−1 K^−1	10.79 ± 0.12 kcal/mol		1.02 ± 0.04	50 °C	does not shift with peptide concentration					
GEWVWDDATKTWVWTE (GEWVWDDATKTWVWTE-NH2) [trpzip9]	402 ± 2 cal mol^−1 K^−1	92.0 ± 0.0 °C		73.1 cal mol^−1 K^−1	26.69 ± 0.08 kcal/mol									
GEWVWDDATKTWHWTE (GEWVWDDATKTWHWTE-NH2) [trpzip8]	440 ± 4 cal mol^−1 K^−1	79.1 ± 0.1 °C		73.8 cal mol^−1 K^−1	25.98 ± 0.11 kcal/mol									
GEWTYDDATKTFTVTE (Streptococcus; Streptococcus Full The 41-56 residue fragment of the protein G B1 domain) [gb1, reference compound]										~200 cal mol^−1 K^−1	~-0.6 kcal/mol	~40%	about 50%	
SWTWENGKWTWK (SWTWENGKWTWK-NH2) [trpzip2]	281 ± 2 cal mol^−1 K^−1	71.9 ± 0.1 °C		48.6 cal mol^−1 K^−1	16.77 ± 0.06 kcal/mol		1.01 ± 0.04							at least 200 μM
